Assay [1] addresses T1, human SIRPγ on primary human T-cells (human, UniProt Q9P1W8 29-387).
T1 construct: endogenous SIRPγ of donor T-cells; also called SIRPγ on T-cells
In words: flow cytometry, dye-conjugated antibody, human whole blood (3 donors). The method, then:
Selected antibodies and an isotype control were tested for binding to human T-cells, B-cells, NK cells, monocytes, and granulocytes. […] Up to 50 μg/mL fluorescent dye-conjugated antibodies or isotype controls were incubated with whole blood from three normal donors. T-cells were identified as the CD14−, CD20−, SSClow, and CD3+ population or further identified to be CD4+ or CD8+ populations. B-cells were identified as the CD14−, SSClow, and CD20+ population. NK cells were identified as CD14−, CD20−, CD3−, and CD56+. Monocytes were identified as the SSClow and CD14+ population. Granulocytes were identified as the CD14−, CD20−, CD3−, SSChigh population. Graphs depict the median fluorescence intensity (MFI) of each population.

Assay [2] concerns the target T2, extracellular binding domain of human SIRPγ (plate-coated) (human, UniProt Q9P1W8 29-360).
T2 construct: also called hSIRPγ
Briefly: ELISA, coated SIRP ECD (2 µg/mL), anti-human IgG, luminescence. In outline:
(§1)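 Plate-coated SIRP extracellular domain (2 μg/mL), blocked, then exposed to purified antibodies in titration, after transient expression in Expi293F cells for 5 days and Protein A purification. Bound antibody is detected with anti-human IgG and a chemiluminescent substrate, and reported as relative luminescence units.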
For orientation: An ELISA detects its analyte on a solid surface through an enzyme-linked reagent.

In assay [3] the target is T3, Cynomolgus Monkey SIRPγ (plate-coated extracellular domain).
T3 construct: also called Cyno SIRPγ
T3 extracellular domain: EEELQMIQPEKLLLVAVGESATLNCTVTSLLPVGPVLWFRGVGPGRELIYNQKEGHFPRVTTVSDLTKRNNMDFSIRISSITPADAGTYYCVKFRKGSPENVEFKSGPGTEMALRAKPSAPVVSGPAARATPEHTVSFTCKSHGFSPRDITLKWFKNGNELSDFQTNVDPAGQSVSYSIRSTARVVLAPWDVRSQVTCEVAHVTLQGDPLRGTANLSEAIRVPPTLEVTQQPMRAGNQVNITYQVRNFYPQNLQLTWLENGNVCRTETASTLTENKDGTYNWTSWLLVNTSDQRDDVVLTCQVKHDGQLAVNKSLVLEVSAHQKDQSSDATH
The assay is described as above. A digest of the protocol:
as §1

Assay [4] concerns the target T4, cynomolgus monkey SIRPγ-His monomer protein (cynomolgus monkey, UniProt Q9P1W8 29-359 (human entry), limits assumed).
T4 construct: also called Cyno SIRPγ; Cyno SIRPγ-His
T4 chain: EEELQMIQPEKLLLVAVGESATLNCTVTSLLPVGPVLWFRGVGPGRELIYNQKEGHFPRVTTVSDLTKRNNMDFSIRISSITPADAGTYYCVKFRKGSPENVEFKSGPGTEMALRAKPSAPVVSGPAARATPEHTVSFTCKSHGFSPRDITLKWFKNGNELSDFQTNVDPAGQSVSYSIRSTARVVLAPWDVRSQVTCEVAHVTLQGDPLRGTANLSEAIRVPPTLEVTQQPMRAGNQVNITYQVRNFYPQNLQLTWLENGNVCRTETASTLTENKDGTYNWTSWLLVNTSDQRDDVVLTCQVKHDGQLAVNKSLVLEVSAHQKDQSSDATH
In words: BLI Octet, antibody on AHC, SIRP-His monomer, 1:1 model. The protocol: (§2) Select antibodies from Example 1 of the disclosure were tested for their affinities to human SIRPγ, cynomolgus monkey SIRPγ, human SIRPαV1, human SIRPαV2, and human SIRPβ1 using a biolayer interferometry (BLI) Octet system (Pall ForteBio). Each antibody was immobilized on a biosensor tip by an anti-human IgG capture (AHC). […] The biosensors were then exposed to wash buffer to measure off-rate kinetics. The resulting kinetic data were analyzed and fitted using a 1:1 binding model.
For orientation: BLI is a label-free optical method that tracks binding on a fibre tip over time.

For assay [5], the target named is T5, human SIRPγ-His monomer protein (human, UniProt Q9P1W8 29-360).
T5 construct: also called hSIRPγ
T5 sequence (Q9P1W8 29-360 limits assumed): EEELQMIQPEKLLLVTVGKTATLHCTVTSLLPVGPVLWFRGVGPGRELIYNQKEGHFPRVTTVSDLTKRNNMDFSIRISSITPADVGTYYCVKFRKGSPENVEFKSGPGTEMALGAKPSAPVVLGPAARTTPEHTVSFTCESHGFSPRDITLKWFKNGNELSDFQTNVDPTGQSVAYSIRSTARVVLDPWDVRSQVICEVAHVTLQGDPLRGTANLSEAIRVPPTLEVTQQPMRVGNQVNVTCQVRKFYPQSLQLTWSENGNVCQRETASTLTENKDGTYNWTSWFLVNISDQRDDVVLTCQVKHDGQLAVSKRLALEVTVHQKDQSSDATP
Described as above. The protocol: as §2

Assay [6] deals with T6, human SIRPβ1-His monomer protein (human, UniProt O00241 30-371, limits assumed). In words: BLI. The protocol:
as §2

Assay [7] deals with T7, Human SIRPαV2 (plate-coated extracellular domain) (Homo sapiens, UniProt P78324).
T7 construct: extracellular domain
T7 sequence (P78324 other isoform, or with tags, fused parts or gaps limits assumed): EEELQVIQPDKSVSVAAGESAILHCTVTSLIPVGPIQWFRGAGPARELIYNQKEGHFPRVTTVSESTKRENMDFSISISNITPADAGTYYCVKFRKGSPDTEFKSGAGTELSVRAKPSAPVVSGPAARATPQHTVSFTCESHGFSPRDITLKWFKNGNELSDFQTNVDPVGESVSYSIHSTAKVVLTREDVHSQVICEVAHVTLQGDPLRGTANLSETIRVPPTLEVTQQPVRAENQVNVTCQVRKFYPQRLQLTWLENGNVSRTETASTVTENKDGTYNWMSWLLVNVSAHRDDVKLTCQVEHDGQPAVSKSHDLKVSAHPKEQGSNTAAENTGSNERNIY
In words: ELISA, coated SIRP ECD (2 µg/mL), anti-human IgG, luminescence. A digest of the protocol:
as §1

The target of assay [8] is T8, human SIRPγ on stably transfected CHO cells (human, UniProt Q9P1W8 29-387).
T8 construct: also called Human SIRPγ CHO
T8 sequence (Q9P1W8 29-387 limits assumed): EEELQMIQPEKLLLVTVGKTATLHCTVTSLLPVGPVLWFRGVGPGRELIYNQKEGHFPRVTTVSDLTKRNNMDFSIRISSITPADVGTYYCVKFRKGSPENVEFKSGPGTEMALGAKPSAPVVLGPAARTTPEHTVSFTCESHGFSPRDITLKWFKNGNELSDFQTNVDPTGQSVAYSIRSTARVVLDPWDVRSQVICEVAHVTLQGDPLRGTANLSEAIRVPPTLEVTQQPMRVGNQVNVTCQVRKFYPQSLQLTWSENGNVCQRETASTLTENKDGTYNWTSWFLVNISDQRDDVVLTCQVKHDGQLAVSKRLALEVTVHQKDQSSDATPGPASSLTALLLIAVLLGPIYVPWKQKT
In words: flow cytometry, myc-scFv PPE. In outline: (§3)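 Flow cytometry on stable CHO transfectants; antibody titration; fluorescent anti-human IgG detection; MFI per concentration. myc-tagged scFv: crude PPE on SIRP-expressing CHO and parental CHO-K1; fold change <2.0 = non-binder.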

The target in assay [9] is T9, cynomolgus monkey SIRPγ on CHO cells (cynomolgus monkey, UniProt Q9P1W8 29-386 (human entry)).
T9 construct: also called Cyno SIRPγ CHO
T9 chain: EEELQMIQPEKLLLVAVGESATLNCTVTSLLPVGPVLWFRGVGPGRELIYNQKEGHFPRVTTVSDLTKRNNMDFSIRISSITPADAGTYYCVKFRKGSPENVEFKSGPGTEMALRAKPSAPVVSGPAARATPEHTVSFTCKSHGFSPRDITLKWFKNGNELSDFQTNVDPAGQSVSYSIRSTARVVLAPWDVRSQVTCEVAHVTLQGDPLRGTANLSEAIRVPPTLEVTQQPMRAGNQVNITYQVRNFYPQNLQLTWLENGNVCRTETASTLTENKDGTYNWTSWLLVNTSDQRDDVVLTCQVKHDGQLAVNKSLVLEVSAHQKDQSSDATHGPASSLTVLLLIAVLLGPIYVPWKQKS
In words: flow cytometry, myc-scFv PPE. In outline: as §3

The target in assay [10] is T5, human SIRPγ-His monomer protein. Briefly: BLI Octet, V5-scFv PPE captured, SIRP-His 500 nM.
Assay [11] deals with T6, human SIRPβ1-His monomer protein. In words: BLI Octet, V5-scFv PPE captured, SIRP-His 500 nM.
In assay [12] the target is T4, cynomolgus monkey SIRPγ-His monomer …. Briefly: BLI Octet, captured scFv PPE, cyno SIRP. A digest of the protocol: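 Bio-layer interferometry used biotinylated anti-V5 on streptavidin sensors to capture V5-tagged scFv from crude periplasmic extract. Monomeric His-tagged SIRP protein at 500 nM was associated, then dissociated in wash buffer. Off-rate (kdis) was analyzed from the kinetic traces.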

This note sets out measurements from patent publication US20240400677A1 (ELECTRA THERAPEUTICS, published 2024).

T2 sequence (Q9P1W8 29-360 limits assumed): as the sequence (Q9P1W8 29-360 limits assumed) above
T1 sequence (Q9P1W8 29-387 limits assumed): as the sequence (Q9P1W8 29-387 limits assumed) above
T6 sequence (O00241 30-371 limits assumed): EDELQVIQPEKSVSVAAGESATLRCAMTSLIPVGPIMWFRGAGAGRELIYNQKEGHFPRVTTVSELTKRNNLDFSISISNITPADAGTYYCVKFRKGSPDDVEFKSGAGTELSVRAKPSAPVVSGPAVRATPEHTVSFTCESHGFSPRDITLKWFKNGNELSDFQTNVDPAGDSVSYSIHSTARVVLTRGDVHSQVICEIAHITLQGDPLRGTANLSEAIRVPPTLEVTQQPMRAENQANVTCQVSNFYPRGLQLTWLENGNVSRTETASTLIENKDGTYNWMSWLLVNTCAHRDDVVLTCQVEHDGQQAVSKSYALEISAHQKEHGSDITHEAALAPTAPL

B1: Antibody 6 (antibody, V domains shown)
VH: QVQLVQSGAEVKKPGASVKVSCKASGYTFTGYHIHWVRQAPGQGLEWMGWINPNSGGTNYAQKFQGRVTMTRDTSINTAYMELNRLRSDDTAVFYCARERVGYCSRPSCLDDLNIWGQGTMVTVSS
VL: DIQMTQSPSTLSASVGDRVTITCRASQSISSWLAWYQQKPGKAPKLLIYKASSLETGVPSRFSGSGSGTEFTLTISSLQPDDFATYYCQQYDSYYTFGQGTKLEIK
Turning to B1, the “EC50 (read off the curve)” value in assay [1] is ~0.1 µg/mL; in assay [2] it was ~0.02 µg/mL; in assay [3], ~0.1 µg/mL.

B2: Antibody 8 (antibody, V domains shown)
VH: QVQLVQSGAEVKKPGASVKVSCKASGYTFTGYHIHWVRQAPGQGLEWMGWINPNSGGTNYAQKFQGRVTMTRDTSINTAYMELNRLRSDDTAVFYCARERVGYCSRPSCLDDLNIWGQGTMVTVSS
VL: DIQMTQSPSTLSASVGDRVTITCRASQSISSWLAWYQQKPGKAPKLLIYKASSLETGVPSRFSGSGSGTEFTLTISSLQPDDFATYYCQQYDSYYTFGQGTKLEIK
For the molecule B2, the Kd in assay [4] was determined as 8.01 nM; in assay [5] it was 2.07 nM. Further, in assay [6], the binding result is reported as “no binding (tested: 300 nM)”. Besides, the “EC50 (read off the curve)” value in assay [1] is ~0.1 µg/mL; in assay [2] it was ~0.04 µg/mL.

B3: Antibody 5 (antibody, V domains shown)
VH: QVQLVQSGAEVKKPGASVKVSCKASGYTFTGYHIHWVRQAPGQGLEWMGWINPNSGGTNYAQKFQGRVTMTRDTSINTAYMELNRLRSDDTAVFYCARERVGYCSRPSCLDDLNIWGQGTMVTVSS
VL: DIQMTQSPSTLSASVGDRVTITCRASQSISSWLAWYQQKPGKAPKLLIYKASSLETGVPSRFSGSGSGTEFTLTISSLQPDDFATYYCQQYDSYYTFGQGTKLEIK
Consider B3, for which the “EC50 (read off the curve)” value in assay [1] is ~0.1 µg/mL; in assay [2], ~0.02 µg/mL; in assay [3] it was ~0.07 µg/mL.

B4: Antibody 3 (antibody, V domains shown)
VH: QVQLVESGGGVVQPGRSLRLSCAASGFTFSNYGMHWVRQAPGKGLEWVAFIWYDGSNKNYADSVKGRFTISRDNPTNTLYLQMNSLRAEDTAVYYCAREEQWLDYWGQGTLVTVSS
VL: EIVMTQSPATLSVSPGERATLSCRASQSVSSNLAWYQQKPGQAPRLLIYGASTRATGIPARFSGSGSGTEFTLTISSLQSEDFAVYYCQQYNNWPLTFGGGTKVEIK
Take B4: in [2], the “EC50 (read off the curve)” value is ~0.1 µg/mL. In assay [7], the binding result is recorded as “no binding (tested: about 40 µg/mL)”.

B5: Antibody 4 (antibody, V domains shown)
VH: QVQLVESGGGVVQPGRSLRLSCAASGFTFSNYGMHWVRQAPGKGLEWVAFIWYDGSNKNYADSVKGRFTISRDNPTNTLYLQMNSLRAEDTAVYYCAREEQWLDYWGQGTLVTVSS
VL: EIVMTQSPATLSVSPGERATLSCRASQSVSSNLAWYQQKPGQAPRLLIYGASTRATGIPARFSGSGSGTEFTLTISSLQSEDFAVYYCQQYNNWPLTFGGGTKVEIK
For the molecule B5, in [2], the “EC50 (read off the curve)” value was ~0.1 µg/mL. Moreover, the binding result in assay [7] is given as “no binding (tested: about 40 µg/mL)”.

B6: Antibody 22 (scFv, V domains shown)
VH: QVQLVQSGAEVKKPGASVKVSCKASGYTFTSHDINWVRQAPGQGLEWMGISNPSGGSTYYAQKFQGRVTMTRDTSTSTVYMELSSLRSEDTAVYYCASSRRYWNGAFDYWGQGTLVTVSS
VL: not shown
notes: scFv in crude PPE, V5/myc-tagged
Consider B6, for which the figures for the “MFI fold change over parental CHO” value in assay [8] and in assay [9] were 3.17 fold and 8.24 fold, respectively. Moreover, the kdis in assay [10] and in assay [11] was < 0.001 s⁻¹ each time. In [12], the binding result is “binds”.

A word on the EC50 (read off the curve): it is the concentration giving half of the maximal effect. For orientation: Kd means the equilibrium constant for the complex coming apart.
